Results taken from the Human Domainome abundance scans (Beltran et al. 2025).
± gives the uncertainty stated by the source.

B1: Zinc finger homeobox protein 4, residues 2562 to 2617; numbered along this chain, Q86UP3 (parent)
chain: RLRTTITPEQLEILYEKYLLDSNPTRKMLDHIAREVGLKKRVVQVWFQNTRARERK

Variants of: B1
Test: abundance fitness (aPCA) (normalised: wild type 0, dead -1); higher = more abundant; growth selection in yeast, the domain comes from the species named
Details: Homo sapiens

Variant	abundance fitness
RLRTTITPEQLEILYEKYLLDSSPTRKMLDHIAREVGLKKRVVQVWFQNTRARERK [N23S]	-0.1 ± 0.061
RLRTTITPEQLEILYEKYLLDSTPTRKMLDHIAREVGLKKRVVQVWFQNTRARERK [N23T]	-0.213 ± 0.071
RLRTTITPEQLEILYEKYLLDSVPTRKMLDHIAREVGLKKRVVQVWFQNTRARERK [N23V]	-0.356 ± 0.09
RLRTTITPEQLEILYEKYLLDSWPTRKMLDHIAREVGLKKRVVQVWFQNTRARERK [N23W]	-0.208 ± 0.11
RLRTTITPEQLEILYEKYLLDSYPTRKMLDHIAREVGLKKRVVQVWFQNTRARERK [N23Y]	-0.062 ± 0.12
RLRTTITPEQLEILYEKYLLDSNATRKMLDHIAREVGLKKRVVQVWFQNTRARERK [P24A]	-0.861 ± 0.15
RLRTTITPEQLEILYEKYLLDSNCTRKMLDHIAREVGLKKRVVQVWFQNTRARERK [P24C]	-0.777 ± 0.077
RLRTTITPEQLEILYEKYLLDSNDTRKMLDHIAREVGLKKRVVQVWFQNTRARERK [P24D]	-0.679 ± 0.064
RLRTTITPEQLEILYEKYLLDSNETRKMLDHIAREVGLKKRVVQVWFQNTRARERK [P24E]	-0.976 ± 0.13
RLRTTITPEQLEILYEKYLLDSNFTRKMLDHIAREVGLKKRVVQVWFQNTRARERK [P24F]	-0.503 ± 0.18
RLRTTITPEQLEILYEKYLLDSNGTRKMLDHIAREVGLKKRVVQVWFQNTRARERK [P24G]	-0.852 ± 0.099
RLRTTITPEQLEILYEKYLLDSNHTRKMLDHIAREVGLKKRVVQVWFQNTRARERK [P24H]	-0.847 ± 0.2
RLRTTITPEQLEILYEKYLLDSNITRKMLDHIAREVGLKKRVVQVWFQNTRARERK [P24I]	-0.415 ± 0.22
RLRTTITPEQLEILYEKYLLDSNKTRKMLDHIAREVGLKKRVVQVWFQNTRARERK [P24K]	-0.948 ± 0.2
RLRTTITPEQLEILYEKYLLDSNLTRKMLDHIAREVGLKKRVVQVWFQNTRARERK [P24L]	-0.639 ± 0.061
RLRTTITPEQLEILYEKYLLDSNMTRKMLDHIAREVGLKKRVVQVWFQNTRARERK [P24M]	-0.687 ± 0.12
RLRTTITPEQLEILYEKYLLDSNNTRKMLDHIAREVGLKKRVVQVWFQNTRARERK [P24N]	-0.754 ± 0.1
RLRTTITPEQLEILYEKYLLDSNQTRKMLDHIAREVGLKKRVVQVWFQNTRARERK [P24Q]	-0.929 ± 0.12
RLRTTITPEQLEILYEKYLLDSNRTRKMLDHIAREVGLKKRVVQVWFQNTRARERK [P24R]	-0.925 ± 0.07
RLRTTITPEQLEILYEKYLLDSNSTRKMLDHIAREVGLKKRVVQVWFQNTRARERK [P24S]	-0.968 ± 0.16
RLRTTITPEQLEILYEKYLLDSNTTRKMLDHIAREVGLKKRVVQVWFQNTRARERK [P24T]	-0.947 ± 0.12
RLRTTITPEQLEILYEKYLLDSNVTRKMLDHIAREVGLKKRVVQVWFQNTRARERK [P24V]	-0.82 ± 0.098
RLRTTITPEQLEILYEKYLLDSNPARKMLDHIAREVGLKKRVVQVWFQNTRARERK [T25A]	-0.384 ± 0.11
RLRTTITPEQLEILYEKYLLDSNPCRKMLDHIAREVGLKKRVVQVWFQNTRARERK [T25C]	0.181 ± 0.15

Variant	abundance fitness
RLRTTITPEQLEILYEKYLLDSNPDRKMLDHIAREVGLKKRVVQVWFQNTRARERK [T25D]	-0.193 ± 0.17
RLRTTITPEQLEILYEKYLLDSNPERKMLDHIAREVGLKKRVVQVWFQNTRARERK [T25E]	0.095 ± 0.075
RLRTTITPEQLEILYEKYLLDSNPGRKMLDHIAREVGLKKRVVQVWFQNTRARERK [T25G]	-0.331 ± 0.061
RLRTTITPEQLEILYEKYLLDSNPHRKMLDHIAREVGLKKRVVQVWFQNTRARERK [T25H]	-0.596 ± 0.48
RLRTTITPEQLEILYEKYLLDSNPIRKMLDHIAREVGLKKRVVQVWFQNTRARERK [T25I]	-0.526 ± 0.44
RLRTTITPEQLEILYEKYLLDSNPLRKMLDHIAREVGLKKRVVQVWFQNTRARERK [T25L]	-0.546 ± 0.13
RLRTTITPEQLEILYEKYLLDSNPMRKMLDHIAREVGLKKRVVQVWFQNTRARERK [T25M]	-0.364 ± 0.22
RLRTTITPEQLEILYEKYLLDSNPNRKMLDHIAREVGLKKRVVQVWFQNTRARERK [T25N]	-0.148 ± 0.094
RLRTTITPEQLEILYEKYLLDSNPPRKMLDHIAREVGLKKRVVQVWFQNTRARERK [T25P]	-0.147 ± 0.13
RLRTTITPEQLEILYEKYLLDSNPQRKMLDHIAREVGLKKRVVQVWFQNTRARERK [T25Q]	-0.476 ± 0.41
RLRTTITPEQLEILYEKYLLDSNPRRKMLDHIAREVGLKKRVVQVWFQNTRARERK [T25R]	-0.72 ± 0.17
RLRTTITPEQLEILYEKYLLDSNPSRKMLDHIAREVGLKKRVVQVWFQNTRARERK [T25S]	-0.056 ± 0.11
RLRTTITPEQLEILYEKYLLDSNPTDKMLDHIAREVGLKKRVVQVWFQNTRARERK [R26D]	0.285 ± 0.12
RLRTTITPEQLEILYEKYLLDSNPTEKMLDHIAREVGLKKRVVQVWFQNTRARERK [R26E]	0.171 ± 0.16
RLRTTITPEQLEILYEKYLLDSNPTGKMLDHIAREVGLKKRVVQVWFQNTRARERK [R26G]	-0.143 ± 0.18
RLRTTITPEQLEILYEKYLLDSNPTHKMLDHIAREVGLKKRVVQVWFQNTRARERK [R26H]	-0.017 ± 0.36
RLRTTITPEQLEILYEKYLLDSNPTIKMLDHIAREVGLKKRVVQVWFQNTRARERK [R26I]	0.917 ± 0.22
RLRTTITPEQLEILYEKYLLDSNPTKKMLDHIAREVGLKKRVVQVWFQNTRARERK [R26K]	0.1 ± 0.33
RLRTTITPEQLEILYEKYLLDSNPTLKMLDHIAREVGLKKRVVQVWFQNTRARERK [R26L]	0.24 ± 0.065
RLRTTITPEQLEILYEKYLLDSNPTMKMLDHIAREVGLKKRVVQVWFQNTRARERK [R26M]	-0.092 ± 0.21
RLRTTITPEQLEILYEKYLLDSNPTNKMLDHIAREVGLKKRVVQVWFQNTRARERK [R26N]	1.41 ± 0.34
RLRTTITPEQLEILYEKYLLDSNPTPKMLDHIAREVGLKKRVVQVWFQNTRARERK [R26P]	-0.236 ± 0.33
RLRTTITPEQLEILYEKYLLDSNPTQKMLDHIAREVGLKKRVVQVWFQNTRARERK [R26Q]	0.369 ± 0.075
